The results in this text go back to patent publication US20180044385A1.

For the assay, the target named is Fab with lambda light chain (Cλ). The experiment in a line: ELISA; reference is the Fab with kappa light chain. (An ELISA detects its analyte on a solid surface through an enzyme-linked reagent.)

For the substance “wild-type Protein-G (C2 domain / Fab binding domain)”, the EC50 ratio, Cλ Fab over CK Fab was determined as 7 fold.
